How the values were obtained:
[1] = target: aged human serum albumin (human) (UniProt P02768); test: SEC
[2] = target: aged human serum albumin (human) (UniProt P02768); test: SEC + ELISA
[3] = target: aged human serum albumin aggregates (human) (UniProt P02768); test: SEC + ELISA

Row | Substance | stoichiometry N (HSA molecules) [1] | fold less Aß bound than by fHSA monomers [2] [times less] | fold less Aß bound than by fHSA monomers [3] [times less]
1 | aged human serum albumin (from UniProt P02768 25-609) (natural protein) | 8 |  | 
2 | amyloid beta peptide 1-42 |  | 4 | 12

From publication doi:10.1101/2022.05.03.490418
